Where a chain is given by its changes, count along the chain named. Values belong to the molecule of their own block, whether it stands above or below them.
Tests used:
human CRTH2 = biological target: T1, human CRTH2 (Homo sapiens, UniProt Q9Y5Y4); experiment: Reactivity in presence of ligand DKPGD2, human CRTH2-expressing 293 EBNA cells; type: binding; settings: DKPGD2 10 μM; antibody 0.3, 1 and 3 μg/mL; relative to absence of DKPGD2; FIG. 13
T1 construct: expressed in transfected cells
T1 sequence (Q9Y5Y4 1-395): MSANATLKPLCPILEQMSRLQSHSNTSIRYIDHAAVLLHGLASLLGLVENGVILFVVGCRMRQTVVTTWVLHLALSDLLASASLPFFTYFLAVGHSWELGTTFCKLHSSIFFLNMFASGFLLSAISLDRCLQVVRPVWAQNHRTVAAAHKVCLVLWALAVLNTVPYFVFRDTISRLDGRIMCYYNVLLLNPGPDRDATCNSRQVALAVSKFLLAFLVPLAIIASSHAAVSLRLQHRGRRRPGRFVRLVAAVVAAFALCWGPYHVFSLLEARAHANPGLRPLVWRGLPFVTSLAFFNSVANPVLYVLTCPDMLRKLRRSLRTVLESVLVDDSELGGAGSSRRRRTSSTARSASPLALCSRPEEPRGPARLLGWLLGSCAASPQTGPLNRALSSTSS
Description: Human CRTH2-expressing 293 EBNA cells were established by introducing the human CRTH2 gene expression pAMoh vector prepared in Example 1-(1)-(ii) into 293 EBNA cells (Invitrogen) using Fugene 6 (Promega Corporation) and selecting drug-resistant cells by culture medium formed of 10% FBS, 0.25 mg/mL of G418 (NACALAI TESQUE, Inc.), […] (NACALAI TESQUE, Inc.), and 300 μg/mL of hygromycin B (Wako Pure Chemical Industries) in DMEM.
The human CRTH2-expressing 293 EBNA cells were peeled using 0.02% EDTA solution (NACALAI TESQUE, Inc.), washed with PBS, and suspended with the above-described culture medium. […]
After the cells were washed 5 times with SM, 10 μg/mL of goat anti-Human IgG Alexa 647 (Molecular Probes) diluted with SM was added to wells to which LV0HV1, hu19A2 v52, hu8B1 v1, ch3C12, or ch31A5 was added, 10 μg/mL of goat anti-Rat IgG Alexa 647 (Molecular Probes) diluted with SM was added to wells to which BM16 was added, and 10 μg/mL of goat anti-Mouse IgG Alexa 647 (Molecular Probes) diluted with SM was added to wells to which 301108 was added at a final concentration of 10 μg/mL to cause a reaction at 4° C. for 40 minutes. After the cells were washed again, the cells were suspended with SM, and the fluorescent intensity was analyzed by flow cytometry (BD Biosciences, FACS CantoII).

human eosinophils = experiment: Reactivity against human eosinophils, flow cytometry; type: binding; settings: 0.12-10 μg/mL, 4° C., 1 hour; FIG. 8
Description: To human peripheral blood collected by adding a heparin sodium injection liquid, the same amount of physiological saline for injection as the human peripheral blood was added thereto and mixed with each other. 15 mL of Ficoll-Paque PREMIUM 1.084 (GE Healthcare) was added to a 50 mL centrifuge tube, 30 mL of the above described human peripheral blood diluted with physiological saline was overlaid thereon, and centrifugation was performed at room temperature and 1500 rpm for 30 minutes. […]
After the number of cells was counted, eosinophils were isolated by a negative selection method using CD16 MicroBeads, human (Miltenyi Biotec) according to the attached instructions. […]
After the cells were washed, CELL LAB Mouse Anti-Rat Kappa (kappa light chain specific) FITC (Beckman Coulter Inc.) diluted with SM was added to wells to which Lym2 antibody or BM16 was added and CELL LAB Goat Anti-Mouse IgG (γ chain specific) Fluorescein (FITC) Conjugate (Beckman Coulter Inc.) diluted with SM was added to wells to which 301108 was added at a final concentration of 10 μg/mL respectively to cause a reaction at 4° C. for 1 hour. The cells were washed again and suspended with SM, and the fluorescent intensity was analyzed by flow cytometry (BD Biosciences, FACS CantoII).

binding to human CRTH2-expressing cells in the presence of DKPGD2 (human CRTH2): almost not decreased
B1: LV0HV1: humanized Lym2 antibody, VL LV0 (SEQ ID NO: 33), VH HV1 (SEQ ID NO: 51) (antibody, V domains shown)
VH: EVQLVESGGGVVQPGRSLRLSCAASGFTFSNYYMAWVRQAPGKGLEWVATISYDGSSTYYRDSVKGRFTISRDNAKNSLYLQMNSLRAEDTATYYCARHRGYYYSGAGYFDYWGQGTMVTVSS
VL: DIVMTQTPLSLPVTPGESASISCRSSQSLEYSDGYTYLEWYLQKPGQSPQVLIYGVSNRFSGVPDRFSGSGSGTDFTLKISRVEAEDVGVYYCFQATHDPLTFGQGTKLEIK

B2: Lym2 antibody: rat anti-human CRTH2 monoclonal antibody from hybridoma Lym2, rat IgG2b; VH SEQ ID NO: 17, VL SEQ ID NO: 19 (antibody, listed as Rattus norvegicus, V domains shown)
VH: B1 VH with V11L, L18M, R19K, G42K, N77S, S78T, N84D, A88S, T117V
VL: DVVLTQTPVSLSVTLGDQASISCRSSQSLEYSDGYTYLEWYLQKPGQSPQVLIYGVSNRFSGVPDRFIGSGSGTDFTLKISRVEPEDLGVYYCFQATHDPLTFGSGTKLEIK
reactivity against human eosinophils (human eosinophils): stronger reactivity

From US10100120B2, “Antibody which specifically binds to human CRTH2” (KYOWA HAKKO KIRIN CO., LTD, priority 2015, dated 2018)
